90 variants from IntAct's records for PubMed 29039417 can be followed below.

First the molecules themselves.
B1: BBSome complex member BBS2 (Homo sapiens), Q9BXC9 (parent)
chain: MLLPVFTLKLRHKISPRMVAIGRYDGTHPCLAAATQTGKVFIHNPHTRNQHVSASRVFQSPLESDVSLLSINQAVSCLTAGVLNPELGYDALLVGTQTNLLAYDVYNNSDLFYREVADGANAIVLGTLGDISSPLAIIGGNCALQGFNHEGSDLFWTVTGDNVNSLALCDFDGDGKKELLVGSEDFDIRVFKEDEIVAEMTETEIVTSLCPMYGSRFGYALSNGTVGVYDKTSRYWRIKSKNHAMSIHAFDLNSDGVNELITGWSNGKVDARSDRTGEVIFKDNFSSAIAGVVEGDYRMDGHIQLICCSVDGEIRGYLPGTAEMRGNLMDTSAEQDLIRELSQKKQNLLLELRNYEENAKAELASPLNEADGHRGIIPANTRLHTTLSVSLGNETQTAHTELRISTSNDTIIRAVLIFAEGIFTGESHVVHPSIHNLSSSICIPIVPPKDVPVDLHLKAFVGYRSSTQFHVFESTRQLPRFSMYALTSLDPASEPISYVNFTIAERAQRVVVWLGQNFLLPEDTHIQNAPFQVCFTSLRNGGHLHIKIKLSGEITINTDDIDLAGDIIQSMASFFAIEDLQVEADFPVYFEELRKVLVKVDEYHSVHQKLSADMADHSNLIRSLLVGAEDARLMRDMKTMKSRYMELYDLNRDLLNGYKIRCNNHTELLGNLKAVNQAIQRAGRLRVGKPKNQVITACRDAIRSNNINTLFKIMRVGTASS
partner: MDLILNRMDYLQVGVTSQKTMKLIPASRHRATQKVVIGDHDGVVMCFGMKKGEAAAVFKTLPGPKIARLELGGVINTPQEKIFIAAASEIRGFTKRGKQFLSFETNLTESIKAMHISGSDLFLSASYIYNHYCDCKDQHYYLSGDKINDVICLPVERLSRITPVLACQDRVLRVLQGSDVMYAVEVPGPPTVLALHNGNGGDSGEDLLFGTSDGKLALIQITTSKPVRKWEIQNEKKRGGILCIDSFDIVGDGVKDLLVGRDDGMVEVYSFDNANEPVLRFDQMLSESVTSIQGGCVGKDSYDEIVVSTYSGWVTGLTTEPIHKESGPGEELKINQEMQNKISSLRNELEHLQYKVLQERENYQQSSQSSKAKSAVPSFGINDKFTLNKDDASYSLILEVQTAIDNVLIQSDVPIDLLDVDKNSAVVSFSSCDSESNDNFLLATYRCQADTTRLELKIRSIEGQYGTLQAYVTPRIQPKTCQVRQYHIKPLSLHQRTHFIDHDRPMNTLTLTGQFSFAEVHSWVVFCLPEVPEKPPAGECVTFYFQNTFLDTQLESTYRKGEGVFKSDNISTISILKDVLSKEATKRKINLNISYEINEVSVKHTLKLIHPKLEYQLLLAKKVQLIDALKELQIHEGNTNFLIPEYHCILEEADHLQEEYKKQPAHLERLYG

This test covers variants of B1. Conditions: with BBS7, Q8IWZ6-2.
Regarding S407E, the “effect of a mutation on the interaction” value was “with no effect”. To S407A belongs “with no effect”.

On to S407K, for which the “effect of a mutation on the interaction” value was “with no effect”.

As for G375K, the “effect of a mutation on the interaction” value is given as “with no effect”.

For the variant G375E, the “effect of a mutation on the interaction” value is on record as “with no effect”. To G375A belongs “with no effect”; to L363A, “with no effect”.

Turning to L363E, the “effect of a mutation on the interaction” value is “with no effect”. To L363K belongs “with no effect”. To H373A belongs “with no effect”.

With H373E, the “effect of a mutation on the interaction” value was “with no effect”. To H373K belongs “with no effect”; to N368E, “with no effect”; to N368A, “with no effect”. For the variant N368K, the “effect of a mutation on the interaction” value was “with no effect”.

Consider F423E, for which the “effect of a mutation on the interaction” value is listed as “with no effect”.

Regarding F423A, the “effect of a mutation on the interaction” value is “with no effect”. For the variant Q396E, the “effect of a mutation on the interaction” value is recorded as “with no effect”.

Consider Q396A, for which the “effect of a mutation on the interaction” value is recorded as “with no effect”. As for Q396K, the “effect of a mutation on the interaction” value is “with no effect”. Consider D371E, for which the “effect of a mutation on the interaction” value is recorded as “with no effect”. For D371A the value was “with no effect”; for D371K, “with no effect”. In the case of I404K, the “effect of a mutation on the interaction” value is “disrupting interaction strength”.

I404A: the “effect of a mutation on the interaction” value is listed as “with no effect”. I404E: the “effect of a mutation on the interaction” value is recorded as “with no effect”. For I377K the value was “with no effect”; for I377A, “with no effect”; for I377R, “disrupting interaction strength”.

Consider I377E, for which the “effect of a mutation on the interaction” value is “with no effect”. For the variant F418K, the “effect of a mutation on the interaction” value is “with no effect”. Consider F418A, for which the “effect of a mutation on the interaction” value is recorded as “with no effect”. As for F418E, the “effect of a mutation on the interaction” value was “with no effect”.

On to T406A, for which the “effect of a mutation on the interaction” value is listed as “with no effect”. To T406K belongs “with no effect”. As to T406E, the “effect of a mutation on the interaction” value was “with no effect”.

With A364E, the “effect of a mutation on the interaction” value was “with no effect”.

In the case of A364K, the “effect of a mutation on the interaction” value is listed as “with no effect”. For the variant E369A, the “effect of a mutation on the interaction” value was “with no effect”.

In the case of E369K, the “effect of a mutation on the interaction” value is reported as “with no effect”. To A370E belongs “with no effect”; to A370K, “with no effect”; to A419K, “with no effect”.

In the case of A419E, the “effect of a mutation on the interaction” value is given as “with no effect”. To R413K belongs “with no effect”.

Turning to R413A, the “effect of a mutation on the interaction” value was “with no effect”. Consider R413E, for which the “effect of a mutation on the interaction” value is given as “with no effect”. Turning to I376F, the “effect of a mutation on the interaction” value is reported as “disrupting interaction strength”. To I376K belongs “with no effect”; to I376A, “with no effect”. Regarding I376E, the “effect of a mutation on the interaction” value is on record as “with no effect”. For S390E the value was “with no effect”. As for S390K, the “effect of a mutation on the interaction” value was “with no effect”. To S390A belongs “with no effect”; to D409K, “with no effect”.

For the variant D409A, the “effect of a mutation on the interaction” value is given as “with no effect”. To D409E belongs “with no effect”; to E362A, “with no effect”; to E362K, “with no effect”. For L387A the value was “with no effect”; for L387E, “with no effect”; for L387K, “disrupting interaction strength”. Take T386A: the “effect of a mutation on the interaction” value is “with no effect”. For T386E the value was “with no effect”; for T386K, “with no effect”; for T397A, “with no effect”. Take T397E: the “effect of a mutation on the interaction” value was “with no effect”.

For T397K, the “effect of a mutation on the interaction” value is “with no effect”. For A414K the value was “with no effect”; for A414E, “with no effect”. R403K: the “effect of a mutation on the interaction” value was “with no effect”.

As to R403A, the “effect of a mutation on the interaction” value is “with no effect”.

R403E: the “effect of a mutation on the interaction” value was “with no effect”. On to S405A, for which the “effect of a mutation on the interaction” value was “with no effect”.

On to S405K, for which the “effect of a mutation on the interaction” value is recorded as “with no effect”. Regarding S405E, the “effect of a mutation on the interaction” value was “with no effect”. On to E394A, for which the “effect of a mutation on the interaction” value is given as “with no effect”.

Take E394K: the “effect of a mutation on the interaction” value is “with no effect”. As to T385A, the “effect of a mutation on the interaction” value was “with no effect”. To T385E belongs “disrupting interaction strength”. Turning to T385K, the “effect of a mutation on the interaction” value is given as “with no effect”. To A398E belongs “with no effect”; to A398K, “with no effect”; to I422E, “with no effect”. I422A: the “effect of a mutation on the interaction” value was “with no effect”. For I422K the value was “with no effect”. Regarding G392K, the “effect of a mutation on the interaction” value is “with no effect”. To G392E belongs “with no effect”; to G392A, “with no effect”. To I417K belongs “with no effect”.
